From publication PMC4005659, “TcaR–ssDNA complex crystal structure reveals new DNA binding mechanism of the MarR family proteins”

Molecular target: TcaR (Staphylococcus epidermidis RP62A (ATCC …, UniProt A0A0H2VJZ8 1-151))
Assay: X-ray crystallography; 1:1 TcaR dimer:ssDNA; 40% ethylene glycol, 0.1 M Tris pH 7.0; 3.6 A; EMSA: 20 mM Tris-HCl pH 8.0, 150 mM KCl, 0.1 mM MgCl2, 0.05 mM EDTA, 12.5% glycerol, 0.1 mM DTT, 1 mg/ml BSA, 15 min, room temperature; ssDNA 12 uM, TcaR 2-24 uM
Details: protein: recombinant; tags: N-terminal His6; chain copies: 2; single strand

CGCAGCGCGCAGCCCTA (ssDNA) [17-mer GC-rich ssDNA]
binding result: binds
